Data taken from patent publication US20250215105A1 (BRIGHTPATH BIOTHERAPEUTICS, published 2025).

Biological target: T1, human CD39 on the cell surface (human, UniProt P49961 1-510)
T1 construct: whole, on cells; This one entry covers every cell-surface human CD39 assay, on transfected and on endogenous cells; also called 239T-hCD39; Jurkat-hCD39
T1 sequence (looked up): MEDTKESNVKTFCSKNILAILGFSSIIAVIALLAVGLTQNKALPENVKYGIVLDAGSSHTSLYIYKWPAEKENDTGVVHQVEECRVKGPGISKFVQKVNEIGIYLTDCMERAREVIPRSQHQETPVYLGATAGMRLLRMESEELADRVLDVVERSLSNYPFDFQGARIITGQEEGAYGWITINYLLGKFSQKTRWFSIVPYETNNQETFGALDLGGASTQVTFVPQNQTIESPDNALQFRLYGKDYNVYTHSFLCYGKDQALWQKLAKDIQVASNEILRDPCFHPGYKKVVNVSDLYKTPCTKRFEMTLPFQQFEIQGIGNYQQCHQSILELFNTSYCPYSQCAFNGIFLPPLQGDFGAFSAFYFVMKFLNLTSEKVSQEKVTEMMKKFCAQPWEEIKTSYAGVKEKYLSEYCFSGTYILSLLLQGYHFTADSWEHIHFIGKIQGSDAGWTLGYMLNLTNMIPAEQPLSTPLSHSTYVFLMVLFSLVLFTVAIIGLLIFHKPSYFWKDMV
Test: flow cytometry on human CD39-overexpressing HEK293T or Jurkat cells

B1: P4_h1lala (antibody, V domains shown)
VH: QVQLKESGPSLVQPSQSLSITCTVSGFSLTNYGVHWVRQSPGKGLEWLGVILRRGSTDYNAAFMSRLSITKDNSKSQVFFKMNSLQADDTAIYYCAKTAVVAGDYFDYWGQGTTLTVSS
VL: DIVMTQSHKFMSTSVGDRVSVTCKASQNVGTNVAWYQQKPGQSPKALIYSASYRYSGVPDRFTGSGSGTDFTLTISNVQSEDLAEYFCQQYNSYPLTFGTGTKLEIKR
notes: Chimeric antibody
binding result: binds
